The values that follow come from the DeepSol protein solubility set.

A short description of this data set: soluble on expression in E. coli; label from the status in PepcDB or PDB records.
On to “MSGELRVRRASSWELDLILKEAEKYGELLHEFFCVVEGKYRDVYAVNEEVWKIIEDINMRPYSLGTFVGTIRVDENLVEKFYPNLEFFSLIKLEKNYVILGPKASFLFTTGKDAPKEAVREIKWQGSKRVVVLNDLGDIIGIGLINPKSDRRFIKNLKDVGEFLRR”, for which the “soluble on expression in E. coli” value was “soluble”.
The value for “MSGLKLVTVLLLALCTATEAAKCRGKYMEMRGREGFVTRGGCRGLDSQIQEEYWTTVGFDGDLRDGRTTDDFLVFPANENNGHTQTNSFVGYWDMKESVNPITRSKYGENVHYEAFGHAFIKPDGKVCGWFVGSHKEVVEVCGGFRVLSRSRFNPHQPIPFEWVQGEQYRNRDVLGFHHHKIAKYEANADEVLFGDADVKGKKFNGVSINNEQRVEVDTPETFHRKVWLLRKKSTQPPSDVRAAYHHPRKLL” was “not soluble”; that for “MSGRGKVKSEPMKVVFINTQYVETDARSFKTVVQELTGKNAIVAAGPFDSPSAFDGRCYDGGSKIGEDTRQLHGGGGGGGRMGTTTEFDRLFKEMPHMEELYKLWSEY” was “soluble”; that for “MSGVKIAFIRHHDLWIKVDGKEKQLTKGEYITGPKWSYDGEWLAYVKGEKQNTLELYRLKDGKKVTPFHSEVSNYQWSPTENIIAFIFTGTLHTFKVEKKNADFENVSAGVGDYAWYPNGKKFLVSSEAHLLPTGWTGAQLYEVQKDAHMNPHKMKHLYALPNEHDDFLALVASGFQWSPDQKWISFLAVPTASWSADSNTLCLVRADGSRFEKVDQMLLNTQWFKWAPANNILAYIEGSGRVALENKHLKVKELPALQQNTFTPKGYVDWDFTWKNDNVIIVSRAKEAGIETPPEKRPLPSLYEIDSTSDEQHRITKPPHRQGDYHPLFMNKSNQLIWIRSDRKKADVWLAHKDGKHEMKWIENIDVPLEHHHHHH” was “not soluble”.
Turning to “MSGVRFPSGSLKDVRFFLHLFFSSKYGIIYVRYLDEEGTIMKQIIISVGREFGSGGHIVAQKLAEHYDIPIFNKELLEEMARKEGYSEKALEKYDEKPVNFGFMPLPYAGGNIPIEQEIAMKQFEFIKNKADAGESFVIVGRCADEILAYNPNLVSVFITGDRESKIARVMDREGLDRKQAINKMKRMDKIRKTYHNFYCRNKWGDSRGYDICINTGKTDFDTAKNMVVECVDKLKERSE”, the “soluble on expression in E. coli” value is “not soluble”.
As for “MSGVSTAAYFARRAAQKERVRILYRRALKDTLNWAVHRHIFYRDEDVDRIDKLIAHGEAEYNKWRHPDPYIVPWAPGGSKFCRNPTPPAGIEIVYNYGLEDNP”, the “soluble on expression in E. coli” value is “not soluble”.
The value for “MSHHKLEVKNLSFTYPDGHKAIDGISFTVRHGESVGIVGENGAGKSTLLLVLMGVLFPNQGEVRVGDVRVTKKTLPLIRQRLGMVFQNPDDQLFMTTVYDDVAFGPRNYKLDEKEVEDRVMKSLDMVGISHLKDKAPYKLSGGEKRAAAIATVLSMQPDILVMDEPTSSLDPRSRRRVMELLKNFEHTKIITSHDLDMVLEICERTIVLKQGKVAADGLTSEILADKELMNTCGLEVPLALQGCPVCGEKKKYV” was “soluble”; that for “MSHHRIIIIGAGAAGVGMAITLQEFNIKDVLIVEKGTIGHSFKHWPLSTKTITPSFTTNGFGMPDMNAIAKDTSPAFTFNEEHLSGKRYAEYLSLVATHYNLNVKTNTNVSRVTYIDGIYHVSTYYGVYTADYIFIATGDYSFPYHPFSYGLHYSEIQTFTQLKGDAFTIIGGNESAFDAAINLSQTGARISIYTSKTGLKKEDADPSIRLSPYTQQRLRNAIQEGALIEMHVGYQARKITYQNHSYKIHFDNGHIVHSHTEPIIATGFDVTQNPLIEQLFQVRQSEVQLTELDESTKFPNVFLIGATVRHQNAILCYIYKFRARFAVLARIVSLREGLPEDTSLIQSYRQKNMFLDDYSCCDVNCTCLEHHHHHH” was “not soluble”; that for “MSHLPLLALSPLDGRYLSKVDTLRPIFSEYGLIKSRVKVEIAWLLALAAEPNIVELAPFSVAAQTRLRVLADGLTIEHAARVKEIEHTTNHDVKAVEYFIKEQLKDDIELRRGLEFVHFACTSEDINNLSYSLMLQQARDDVLLPTLDGIATHLRTLAHAQAAQPMLSRTHGQTASPTTLGKEIANVVARLERQRHQIATIALSGKINGAVGNYNAHTISYPEVNWPALAQRFVESLGLVFNPYTTQIEPHDTIAEISDAIRRANTILIDLARDLWGYISLGYFKQKLKEGEIGSSTMPHKVNPIDFENAEGNFGVANALFEHFSTKLPISRWQRDLTDSTVLRALGTAFGHTQVALDSLNKGLHKLSPNPERIDADLDAAWEVLAEAVQTIMRRHNLPNPYEQLKALTRGQGITADSMRAFIETLDLPTEAKQRLHDLTPRAYTGLAKQLALNI” was “not soluble”.
As to “MSHTAEIPMVPGSESPLELKPLKAVDPKAVYHRRAQRLLSLAKDSPLADYFELCRRVVAIQARLAAEADFGQLLAWGKDEAIPLSHLGSEADSYWQGLLQQLLSDLLPQVGEDLARVLRLLMQQSPEQLTSWGASLRQGHMSAVPARFSLFIWAAMGVYWSHWAPMVIKRIDQRKVAQQNLCPICGSHPVASVIVDQPRAGLRYLHCSLCESEWHYIRAHCTSCGQDKGTTLWSFDDTQAQVRIESCDECHGYTKMMFVEKSPLMDVVADDLATLMLDSELNAKGFGATTVNPLLLAHETEQ”, the “soluble on expression in E. coli” value was “not soluble”.
The value for “MSIAVGMIETLGFPAVVEAADSMVKAARVTLVGYEKIGSGRVTVIVRGDVSEVQASVTAGIENIRRVNGGEVLSNHIIARPHENLEYVLPIRYTEAVEQFREIVNPSIIRRAAALEHHHHHH” was “soluble”.
Regarding “MSIDKSPREHWASHQERGSFMLMKLTAWGMRVLGRRLLTPVQYGIVLYFFVFGRRARHSIWEYQQRLADWSARPELRPSQRRVFGQFMAFAEALLDKLDVWNGRLGIEQIEIIDPALLRQSLRGARGQMLVGAHLGNLEVCRALAELGEKITMNVLVHTKHAERFNRLLGEAGATNLRLIQVSELDPAIMLQLSQRLDEGEWLAIAGDRVALHGGRNVRVDFLGQPATFPQGPWLLAGLLKCPVNLFFCLKGPKGYRVILEPFADAIEWRRSDRAQVIAHWATRYAERLGHYCLEAPQQWFNFYPFWKSDDESSS”, the “soluble on expression in E. coli” value is given as “not soluble”.
The entry for “MSIDRTSPLKPVSTVQTRETSDTPVQKTRQEKTSAATSASVTLSDAQAKLMQPGVSDINMERVEALKTAIRNGELKMDTGKIADSLIREAQSYLQSK” is “not soluble”; for “MSIEGGNYRRIRNFVDRECAKECIEDFSCFGYEWNSEEKICYLKSRSTSGKLIAKPNTMVGFCQDDEDEVRYRLQDHVIVGPIVMEADDVPDGEECKENCRKVGALYYSWRPNSDNQRSNVVPVEEEEDDEEQEVLGHCECISTMNELRLEYDAFSGFIPIPKHKHRRSILLRPFEI” it is “not soluble”; for “MSIIAINENGFLDKIKGRNPLFTCVISSIETTLSIPISGVHRDVIKYTPSADVELVFYGKSLTLKTPPIDATGSPTPATITRACVELKNIKNLHIDAGAFVKPKIPFIEIDEKPTGRIEEGKAMNNSKELYMKGYLLGKNLDAELLIVGESVPGGTTTALGVLLGLGYDAEGKVSSGSINNPHELKIKVVREGLKKAGINEKSSVFDVLNAVGDKMMPVVAGLAISFAERNKPVILAGGTQMSAVLAVIKEINKKVLDKNLIAIGTTEFVLNDKKGDLKGIVEQIGNVPVLASKFYFEKAKIEGLKNYCKGSVKEGVGAGGIAVYSIVNDLEPTKIREFIENKFYEWYKE” it is “soluble”.
The entry for “MSIIGRFKDIMSANINALLDKAENPEKMVDQYLRNMNSDLAKVKAETAAVMAEEQRAKREYHECQADMEKMESYAMKALQAGNESDARKFLERKTSLESKLSELQAANQIAATNAAQMRKMHDKLVSDIGELEARKNMIKAKWAVAKTQERMNKLGASVSSTSQSMSAFGRMEDKVNKALDQANAMAELNSAPQDDMADLSAKYDTGGSSQVDDELAALKAKMMLDKLEHHHHHH” is “not soluble”; for “MSITDVLSADDIAAALQECRDPDTFEPQKFFQTSGLSKMSANQVKDVFRFIDNDQSGYLDEEELKFFLQKFESGARELTESETKSLMAAADNDGDGKIGAEEFQEMVHS” it is “soluble”.
Regarding “MSITLITAAPGAGKTIFAVWNIIKPAVEADRVVYTAGIPELKLPAISLSYSQVKRWADRELVEVENPSGIPIPDDEKPSRLQNITEGALIVIDEVQYLWPASGSREPGEDIKYLTKHRHHGLEFVLITQAPQLIHKNVLAVVDKHIHMLSDWHGRKRYEWPEYCATVRATSSKLKAVSQRYELPKEAYGLYRSASMHI”, the “soluble on expression in E. coli” value is “not soluble”.
Take “MSITSPVSNTWAPTVKGPHGTQSKIDTKSLSPNLSRAELRKQVRLARRSLSTEVQAEASINACERMLKKLMAMNAQHVALYLTHDGELATAPLIAALWQRGIQTYLPRLHPFNAGQLLFLHYHADSPMQPNQYGILEPKLDVRSVMPIERLDVVVTPLVAFDIKGNRMGMGGGYYDRTLANWQDNGKPLPMGYAHDCQQVPSLPCEHWDVPLPAIITPSRVWEFLEHHHHHH”: the “soluble on expression in E. coli” value is reported as “soluble”.
For “MSIVMSAGKGVTQVVERCEAAKESGFLDLSSCQLMYMADAVYMLIKGYEITKVSIQDNGFKKFPKKFVIKFPTATILNMANNEISEIPEEVATWTSLKGLNAAKNKISKFPEPFLQLKNLIYLDLNGNQLEEIDVDLFYSSLPALIKLNLSGNEGLGDETKKKLKALKPEKLDLIL”, the “soluble on expression in E. coli” value is “not soluble”.
On to “MSIVVKKWNELAEVKAELAARDWFFATSGNLSIKVTDDPLTFLVTASGKDKRKQTEEDFLLVDAAGKPAEETNLKPSAETLLHAEIYGRTNAGCVLHVHTVDNNLISELYAQNGEAVFSGQEIIKAFGIWEENAAVRIPIIDNYADIPTLAREFANYIHGDAGAVLIQNHGITVWGRTAFEAKKHLEAWEFLFRWQVKRLLLQRAGLPVG”, for which the “soluble on expression in E. coli” value was “not soluble”.
The value for “MSIYTLGIDVGSTASKCIILKDGKEIVAKSLVAVGTGTSGPARSISEVLENAHMKKEDMAFTLATGYGRNSLEGIADKQMSELSCHAMGASFIWPNVHTVIDIGGQDVKVIHVENGTMTNFQMNDKCAAGTGRFLDVMANILEVKVSDLAELGAKSTKRVAISSTCTVFAESEVISQLSKGTDKIDIIAGIHRSVASRVIGLANRVGIVKDVVMTGGVAQNYGVRGALEEGLGVEIKTSPLAQYNGALGAALYAYKKAAKSAWSHPQFEK” was “soluble”; that for “MSKAFVDGLLQSSKVVVFSKSYCPYCHKARAALESVNVKPDALQWIEIDERKDCNEIQDYLGSLTGARSVPRVFINGKFFGGGDDTAAGAKNGKLAALLKETGAL” was “not soluble”; that for “MSKKFFLSLGLVALLFSNSQAIDENLIKAAQAEGRVNSLAMPDTWANWKDTWADLKNLYDIEHSDTDMSSAQEIAKFKTEKKNASGDIGDVGASFGEIAVKQGVAQPFKTSYWDQIPTWAKDKDGNWLLAYTGTIAFIVNKDVVKDIPKTWQDLLKGNYKITVGDVSVAAQAVSAVLAANYALGGDEKDLSPALAFFNTLAKQGRLVNNDVSIANLEKGEVEVGLVWDFNGLGYRDKVGKDRYEVLIPADGSVISGYTTIINKYAKHPNAAKLAREFILSDKGQINLAKGYARPIRIDHITLPDDIKAKLLPSEQYKNARAIKDQKAWEKSAKELPQLWQEKVIVDMK” was “not soluble”.
